Source: IntAct's records for PubMed 19737520

B1: Trigger factor (Thermotoga maritima (strain ATCC 43589 / MSB8 / DSM 3109 / JCM 10099)), Q9WZF8 (parent)
chain: MEVKELERDKNRVVLEYVFGAEEIAQAEDKAVRYLNQRVEIPGFRKGRIPKNVLKMKLGEEFQEYTLDFLMDLIPDTLKDRKLILSPIVTERELKDVTARVVVEVHEEPEVRIGDISKIEVEKVDEEKVLEKYVERRIEDLRESHALLEPKEGPAEAGDLVRVNMEVYNEEGKKLTSREYEYVISEDEDRPFVKDLVGKKKGDVVEIEREYEGKKYTYKLEVEEVYKRTLPEIGDELAKSVNNEFETLEQLKESLKKEGKEIYDVEMKESMREQLLEKLPEIVEIEISDRTLEILVNEAINRLKREGRYEQIVSSYESEEKFREELKERILDDIKRDRVIEVLAQEKGISVNDEELEKEAEELAPFWGISPDRAKSLVKARQDLREELRWAILKRKVLDLLLQEVKVKVVEPKGEGDDSEGKEDN
partner: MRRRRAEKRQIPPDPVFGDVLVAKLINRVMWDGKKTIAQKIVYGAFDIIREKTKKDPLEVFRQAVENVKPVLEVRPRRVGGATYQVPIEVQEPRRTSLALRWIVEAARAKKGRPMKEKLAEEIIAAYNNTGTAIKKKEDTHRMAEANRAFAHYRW

Variants of: B1
Details: with rs7_thema rpsG

Row | Variant | effect of a mutation on the interaction
1 | E266R;E269R;E273R | disrupting interaction
